Article PMC4935067 (Nature, 2015)

Biological target: the molecule itself
Experiment: SEC

B1: Csy3, MBP/6xHis-tagged (natural protein, Pseudomonas aeruginosa, UniProt Q02MM1 1-342, looked up)
chain: MSKPILSTASVLAFERKLDPSDALMSAGAWAQRDASQEWPAVTVREKSVRGTISNRLKTKDRDPAKLDASIQSPNLQTVDVANLPSDADTLKVRFTLRVLGGAGTPSACNDAAYRDKLLQTVATYVNDQGFAELARRYAHNLANARFLWRNRVGAEAVEVRINHIRQGEVARAWRFDALAIGLRDFKADAELDALAELIASGLSGSGHVLLEVVAFARIGDGQEVFPSQELILDKGDKKGQKSKTLYSVRDAAAIHSQKIGNALRTIDTWYPDEDGLGPIAVEPYGSVTSQGKAYRQPKQKLDFYTLLDNWVLRDEAPAVEQQHYVIANLIRGGVFGEAEEK
B1: binds.
